Assay results published in patent US20100260668A1 (published 2010).
Values belong to the binder of their own block, whether it stands above or below them.

Columns and labels:
[1] = target: T1, HGF (HGF-His tag) (UniProt P14210 32-728); assay: Direct Bind ELISA, antigen on plate; C-terminal VD
T1 construct: Bought reagent

[2] = target: T2, RON (MSP Receptor ECD-His tag) (UniProt Q04912 25-957, limits assumed); assay: Direct Bind ELISA, antigen on plate; N-terminal VD
T2 construct: extracellular domain; Bought reagent
Procedure: (§1) Enzyme Linked Immunosorbent Assays to screen for antibodies that bind a desired target antigen were performed as follows. […] Plates were washed four times with PBS containing 0.02% Tween 20. Plates were blocked by the addition of 300 μL/well blocking solution (non-fat dry milk powder, various retail suppliers, diluted to 2% in PBS) for ½ hour at room temperature. Plates were washed four times after blocking with PBS containing 0.02% Tween 20.
(§2) Alternatively, one hundred microliters per well of 10 μg/ml of Histidine (His) tagged desired target antigen (R&D Systems, Minneapolis, Minn.) was added to ELISA plates coated with monoclonal mouse anti-polyHistidine antibody as described above and incubated for 1 hour at room temperature. Wells were washed four times with PBS containing 0.02% Tween 20.
(§3) One hundred microliters of antibody or DVD-Ig preparations diluted in blocking solution as described above was added to the desired target antigen plate or desired target antigen/FC fusion plate or the anti-polyHistidine antibody/His tagged desired target antigen plate prepared as described above and incubated for 1 hour at room temperature. Wells are washed four times with PBS containing 0.02% Tween 20.

[3] = target: T2, RON (MSP Receptor ECD-His tag); assay: Direct Bind ELISA, antigen on plate; C-terminal VD
[4] = target: T3, DLL4 (DLL4 ECD/His tag) (UniProt Q9NR61 27-529, limits assumed); assay: Direct Bind ELISA, antigen on plate; N-terminal VD
T3 construct: extracellular domain; Bought reagent
Procedure: as §1, §2, §3

[5] = target: T3, DLL4 (DLL4 ECD/His tag); assay: Direct Bind ELISA, antigen on plate; C-terminal VD
[6] = target: T4, PlGF (Placental GF) (UniProt P49763-2 21-149, limits assumed); assay: Direct Bind ELISA, antigen on plate; C-terminal VD
T4 construct: Bought reagent
T4 sequence (looked up): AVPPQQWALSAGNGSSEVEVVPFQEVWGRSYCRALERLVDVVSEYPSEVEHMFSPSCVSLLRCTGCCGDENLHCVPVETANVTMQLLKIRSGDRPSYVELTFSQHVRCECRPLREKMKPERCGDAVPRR

[7] = target: T1, HGF (HGF-His tag); assay: Direct Bind ELISA, antigen on plate; N-terminal VD
Procedure: as §1, §2, §3

T1 sequence (P14210 32-728 limits assumed): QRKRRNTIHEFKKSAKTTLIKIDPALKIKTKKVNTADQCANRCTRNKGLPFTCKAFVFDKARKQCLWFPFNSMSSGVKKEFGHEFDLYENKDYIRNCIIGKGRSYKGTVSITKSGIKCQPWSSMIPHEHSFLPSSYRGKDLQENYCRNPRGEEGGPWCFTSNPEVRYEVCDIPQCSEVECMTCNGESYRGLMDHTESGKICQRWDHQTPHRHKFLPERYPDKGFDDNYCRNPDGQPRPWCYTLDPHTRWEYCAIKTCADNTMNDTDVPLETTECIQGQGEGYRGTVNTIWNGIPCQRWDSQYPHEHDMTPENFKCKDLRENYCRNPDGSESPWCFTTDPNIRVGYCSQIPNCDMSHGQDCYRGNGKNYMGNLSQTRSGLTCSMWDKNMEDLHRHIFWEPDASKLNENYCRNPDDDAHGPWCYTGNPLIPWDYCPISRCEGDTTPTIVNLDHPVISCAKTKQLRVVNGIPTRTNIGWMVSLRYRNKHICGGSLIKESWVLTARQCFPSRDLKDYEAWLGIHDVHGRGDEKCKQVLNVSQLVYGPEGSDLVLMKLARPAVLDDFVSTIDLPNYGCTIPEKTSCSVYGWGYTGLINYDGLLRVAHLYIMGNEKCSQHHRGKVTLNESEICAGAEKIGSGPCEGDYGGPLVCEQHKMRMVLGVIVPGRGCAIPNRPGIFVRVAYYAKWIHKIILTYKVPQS

EC50 [3]: 94.8 nM
B2: DVD047 (VEGF (seq. 1) and RON (seq. 1) DVD-Ig) (bispecific antibody, IgG1)
VH: EVQLVESGGGLVQPGGSLRLSCAASGYTFTNYGMNWVRQAPGKGLEWVGWINTYTGEPTYAADFKRRFTFSLDTSKSTAYLQMNSLRAEDTAVYYCAKYPHYYGSSHWYFDVWGQGTLVTVSSASTKGPEVQLVQSGGGLVKPGGSLRLSCAASGFTFSSYAMHWVRQAPGKGLEWVAVISYDGSNKYYADSVKGRFTISRDNSKNTLYLQMNSLRAEDTAVYYCARFSGWPNNYYYYGMDVWGQGTTVTVSS
VL: DIQMTQSPSSLSASVGDRVTITCSASQDISNYLNWYQQKPGKAPKVLIYFTSSLHSGVPSRFSGSGSGTDFTLTISSLQPEDFATYYCQQYSTVPWTFGQGTKVEIKRTVAAPDVVMTQSPLSLPVTPGEPASISCRSSQSLLHSNGFNYVDWYLQKPGQSPHLLIYFGSYRASGVPDRFSGSGSGTDFTLKISRVEAEDVGVYYCMQALQTPPWTFGQGTKVEIRR
notes: HC vector V1 (wild-type hIgG1 constant), LC vector V2 (kappa constant); also called DVD047H; DVD047L

EC50 [4]: 0.53 nM
B3: DVD044 (DLL4 (seq. 1) and VEGF (seq. 1) DVD-Ig) (bispecific antibody, IgG1)
VH: EVQLVESGGGLVQPGGSLRLSCAASGFTFTDNWISWVRQAPGKGLEWVGYISPNSGFTYYADSVKGRFTISADTSKNTAYLQMNSLRAEDTAVYYCARDNFGGYFDYWGQGTLVTVSSASTKGPEVQLVESGGGLVQPGGSLRLSCAASGYTFTNYGMNWVRQAPGKGLEWVGWINTYTGEPTYAADFKRRFTFSLDTSKSTAYLQMNSLRAEDTAVYYCAKYPHYYGSSHWYFDVWGQGTLVTVSS
VL: DIQMTQSPSSLSASVGDRVTITCRASQDVSTAVAWYQQKPGKAPKLLIYSASFLYSGVPSRFSGSGSGTDFTLTISSLQPEDFATTYYCQQSYTGTVTFGQGTKVEIKRTVAAPDIQMTQSPSSLSASVGDRVTITCSASQDISNYLNWYQQKPGKAPKVLIYFTSSLHSGVPSRFSGSGSGTDFTLTISSLQPEDFATYYCQQYSTVPWTFGQGTKVEIKR
notes: HC vector V1 (wild-type hIgG1 constant), LC vector V2 (kappa constant); also called DVD044H; DVD044L

EC50 [2]: 0.46 nM
B5: DVD048 (RON (seq. 1) and VEGF (seq. 1) DVD-Ig) (bispecific antibody, IgG1)
VH: EVQLVQSGGGLVKPGGSLRLSCAASGFTFSSYAMHWVRQAPGKGLEWVAVISYDGSNKYYADSVKGRFTISRDNSKNTLYLQMNSLRAEDTAVYYCARFSGWPNNYYYYGMDVWGQGTTVTVSSASTKGPEVQLVESGGGLVQPGGSLRLSCAASGYTFTNYGMNWVRQAPGKGLEWVGWINTYTGEPTYAADFKRRFTFSLDTSKSTAYLQMNSLRAEDTAVYYCAKYPHYYGSSHWYFDVWGQGTLVTVSS
VL: DVVMTQSPLSLPVTPGEPASISCRSSQSLLHSNGFNYVDWYLQKPGQSPHLLIYFGSYRASGVPDRFSGSGSGTDFTLKISRVEAEDVGVYYCMQALQTPPWTFGQGTKVEIRRTVAAPDIQMTQSPSSLSASVGDRVTITCSASQDISNYLNWYQQKPGKAPKVLIYFTSSLHSGVPSRFSGSGSGTDFTLTISSLQPEDFATYYCQQYSTVPWTFGQGTKVEIKR
notes: HC vector V1 (wild-type hIgG1 constant), LC vector V2 (kappa constant); also called DVD048H; DVD048L

EC50 [3]: 116 nM | EC50 [7]: 0.27 nM
B7: DVD034 (HGF (seq. 1) and RON (seq. 1) DVD-Ig) (bispecific antibody, IgG1)
VH: QVQLVESGGGLVKPGGSLRLSCAASGFTFSDYYMSWIRQAPGKGLEWVSYISSSGSTIYYADSVKGRFTISRDNAKNSLYLQMNSLRAEDTAVYYCARDEYNSGWYVLFDYWGQGTLVTVSSASTKGPEVQLVQSGGGLVKPGGSLRLSCAASGFTFSSYAMHWVRQAPGKGLEWVAVISYDGSNKYYADSVKGRFTISRDNSKNTLYLQMNSLRAEDTAVYYCARFSGWPNNYYYYGMDVWGQGTTVTVSS
VL: DIQMTQSPSSVSASVGDRVTITCRASQGISSWLAWYQQKPGKAPNLLIYEASSLQSGVPSRFGGSGSGTDFTLTISSLQPEDFATYYCQQANGFPWTFGQGTKVEIKRTVAAPDVVMTQSPLSLPVTPGEPASISCRSSQSLLHSNGFNYVDWYLQKPGQSPHLLIYFGSYRASGVPDRFSGSGSGTDFTLKISRVEAEDVGVYYCMQALQTPPWTFGQGTKVEIRR
notes: Outer AB012, inner AB005; HC vector V1 (wild-type hIgG1 constant), LC vector V2 (kappa constant); also called DVD034L

EC50 [6]: 2 nM | EC50 [4]: 0.28 nM
B8: DVD257 (DLL-4 (seq. 1) and PLGF (seq. 1) DVD-Ig) (bispecific antibody, IgG1)
VH: EVQLVESGGGLVQPGGSLRLSCAASGFTFTDNWISWVRQAPGKGLEWVGYISPNSGFTYYADSVKGRFTISADTSKNTAYLQMNSLRAEDTAVYYCARDNFGGYFDYWGQGTLVTVSSASTKGPQVQLQQSGAELVKPGASVKISCKASGYTFTDYYINWVKLAPGQGLEWIGWIYPGSGNTKYNEKFKGKATLTIDTSSSTAYMQLSSLTSEDTAVYFCVRDSPFFDYWGQGTLLTVSS
VL: DIQMTQSPSSLSASVGDRVTITCRASQDVSTAVAWYQQKPGKAPKLLIYSASFLYSGVPSRFSGSGSGTDFTLTISSLQPEDFATTYYCQQSYTGTVTFGQGTKVEIKRTVAAPDIVLTQSPDSLAVSLGERVTMNCKSSQSLLNSGMRKSFLAWYQQKPGQSPKLLIYWASTRESGVPDRFTGSGSGTDFTLTISSVQAEDVAVYYCKQSYHLFTFGSGTKLEIKR
notes: Outer AB015, inner AB047; HC vector V1 (wild-type hIgG1 constant), LC vector V2 (kappa constant); also called 7H; VD257L

EC50 [1]: 185 nM
B9: DVD045 (VEGF (seq. 1) and HGF (seq. 1) DVD-Ig) (bispecific antibody, IgG1)
VH: EVQLVESGGGLVQPGGSLRLSCAASGYTFTNYGMNWVRQAPGKGLEWVGWINTYTGEPTYAADFKRRFTFSLDTSKSTAYLQMNSLRAEDTAVYYCAKYPHYYGSSHWYFDVWGQGTLVTVSSASTKGPQVQLVESGGGLVKPGGSLRLSCAASGFTFSDYYMSWIRQAPGKGLEWVSYISSSGSTIYYADSVKGRFTISRDNAKNSLYLQMNSLRAEDTAVYYCARDEYNSGWYVLFDYWGQGTLVTVSS
VL: DIQMTQSPSSLSASVGDRVTITCSASQDISNYLNWYQQKPGKAPKVLIYFTSSLHSGVPSRFSGSGSGTDFTLTISSLQPEDFATYYCQQYSTVPWTFGQGTKVEIKRTVAAPDIQMTQSPSSVSASVGDRVTITCRASQGISSWLAWYQQKPGKAPNLLIYEASSLQSGVPSRFGGSGSGTDFTLTISSLQPEDFATYYCQQANGFPWTFGQGTKVEIKR
notes: HC vector V1 (wild-type hIgG1 constant), LC vector V2 (kappa constant); also called DVD045H; DVD045L

The next lines start with the binder.

B1: DVD033 (RON (seq. 1) and HGF (seq. 1) DVD-Ig) (bispecific antibody, IgG1)
VH: EVQLVQSGGGLVKPGGSLRLSCAASGFTFSSYAMHWVRQAPGKGLEWVAVISYDGSNKYYADSVKGRFTISRDNSKNTLYLQMNSLRAEDTAVYYCARFSGWPNNYYYYGMDVWGQGTTVTVSSASTKGPQVQLVESGGGLVKPGGSLRLSCAASGFTFSDYYMSWIRQAPGKGLEWVSYISSSGSTIYYADSVKGRFTISRDNAKNSLYLQMNSLRAEDTAVYYCARDEYNSGWYVLFDYWGQGTLVTVSS
VL: DVVMTQSPLSLPVTPGEPASISCRSSQSLLHSNGFNYVDWYLQKPGQSPHLLIYFGSYRASGVPDRFSGSGSGTDFTLKISRVEAEDVGVYYCMQALQTPPWTFGQGTKVEIRRTVAAPDIQMTQSPSSVSASVGDRVTITCRASQGISSWLAWYQQKPGKAPNLLIYEASSLQSGVPSRFGGSGSGTDFTLTISSLQPEDFATYYCQQANGFPWTFGQGTKVEIKR
notes: Outer AB005, inner AB012; HC vector V1 (wild-type hIgG1 constant), LC vector V2 (kappa constant); also called DVD033H; DVD033L
EC50 [1]: 11.9 nM | EC50 [2]: 0.22 nM

B4: DVD043 (VEGF (seq. 1) and DLL4 (seq. 1) DVD-Ig) (bispecific antibody, IgG1)
VH: EVQLVESGGGLVQPGGSLRLSCAASGYTFTNYGMNWVRQAPGKGLEWVGWINTYTGEPTYAADFKRRFTFSLDTSKSTAYLQMNSLRAEDTAVYYCAKYPHYYGSSHWYFDVWGQGTLVTVSSASTKGPEVQLVESGGGLVQPGGSLRLSCAASGFTFTDNWISWVRQAPGKGLEWVGYISPNSGFTYYADSVKGRFTISADTSKNTAYLQMNSLRAEDTAVYYCARDNFGGYFDYWGQGTLVTVSS
VL: DIQMTQSPSSLSASVGDRVTITCSASQDISNYLNWYQQKPGKAPKVLIYFTSSLHSGVPSRFSGSGSGTDFTLTISSLQPEDFATYYCQQYSTVPWTFGQGTKVEIKRTVAAPDIQMTQSPSSLSASVGDRVTITCRASQDVSTAVAWYQQKPGKAPKLLIYSASFLYSGVPSRFSGSGSGTDFTLTISSLQPEDFATTYYCQQSYTGTVTFGQGTKVEIKR
notes: HC vector V1 (wild-type hIgG1 constant), LC vector V2 (kappa constant); also called DVD043H; DVD043L
EC50 [5]: 2.12 nM

B6: DVD259 (VEGF (seq. 1) and PLGF (seq. 1) DVD-Ig) (bispecific antibody, IgG1)
VH: EVQLVESGGGLVQPGGSLRLSCAASGYTFTNYGMNWVRQAPGKGLEWVGWINTYTGEPTYAADFKRRFTFSLDTSKSTAYLQMNSLRAEDTAVYYCAKYPHYYGSSHWYFDVWGQGTLVTVSSASTKGPQVQLQQSGAELVKPGASVKISCKASGYTFTDYYINWVKLAPGQGLEWIGWIYPGSGNTKYNEKFKGKATLTIDTSSSTAYMQLSSLTSEDTAVYFCVRDSPFFDYWGQGTLLTVSS
VL: DIQMTQSPSSLSASVGDRVTITCSASQDISNYLNWYQQKPGKAPKVLIYFTSSLHSGVPSRFSGSGSGTDFTLTISSLQPEDFATYYCQQYSTVPWTFGQGTKVEIKRTVAAPDIVLTQSPDSLAVSLGERVTMNCKSSQSLLNSGMRKSFLAWYQQKPGQSPKLLIYWASTRESGVPDRFTGSGSGTDFTLTISSVQAEDVAVYYCKQSYHLFTFGSGTKLEIKR
notes: HC vector V1 (wild-type hIgG1 constant), LC vector V2 (kappa constant); also called VD259H; VD259L
EC50 [6]: 1.3 nM

B10: DVD046 (HGF (seq. 1) and VEGF (seq. 1) DVD-Ig) (bispecific antibody, IgG1)
VH: QVQLVESGGGLVKPGGSLRLSCAASGFTFSDYYMSWIRQAPGKGLEWVSYISSSGSTIYYADSVKGRFTISRDNAKNSLYLQMNSLRAEDTAVYYCARDEYNSGWYVLFDYWGQGTLVTVSSASTKGPEVQLVESGGGLVQPGGSLRLSCAASGYTFTNYGMNWVRQAPGKGLEWVGWINTYTGEPTYAADFKRRFTFSLDTSKSTAYLQMNSLRAEDTAVYYCAKYPHYYGSSHWYFDVWGQGTLVTVSS
VL: DIQMTQSPSSVSASVGDRVTITCRASQGISSWLAWYQQKPGKAPNLLIYEASSLQSGVPSRFGGSGSGTDFTLTISSLQPEDFATYYCQQANGFPWTFGQGTKVEIKRTVAAPDIQMTQSPSSLSASVGDRVTITCSASQDISNYLNWYQQKPGKAPKVLIYFTSSLHSGVPSRFSGSGSGTDFTLTISSLQPEDFATYYCQQYSTVPWTFGQGTKVEIKR
notes: HC vector V1 (wild-type hIgG1 constant), LC vector V2 (kappa constant); also called DVD046L
EC50 [7]: 0.5 nM
